System: K4 kissing-loop RNA reporter
Assay: apparent KD of K4 kissing-loop reporter; higher = weaker reporter binding
Details: Eterna round: R107
Protocol: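 RNA-MaP round R107: designed RNA switches with theophylline, tryptophan, arginine or FMN aptamers are transcribed on-chip within common flanks. They are titrated with a labelled K4 kissing-loop RNA reporter in RNA-MaP buffer (100 mM Tris pH 7.5, 80 mM KCl, 4 mM MgCl2), without ligand or with the indicated ligand. Median apparent KD per design.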

[1] = input ligand: theophylline 20 uM
[2] = input ligand: tryptophan 2.4 mM
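Further: bound reporter read as fluorescence of individual clusters on recovered sequencing chips by microscopy, with normalized cluster intensities fitted with a binding model.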

Sequence	apparent KD of K4 kissing-loop reporter (input ligand: FMN 200 uM) [nM]	apparent KD of K4 kissing-loop reporter (input ligand: arginine 13.2 mM) [nM]	apparent KD of K4 kissing-loop reporter (input ligand: none) [nM]	apparent KD of K4 kissing-loop reporter [1] [nM]	apparent KD of K4 kissing-loop reporter [2] [nM]
AAUACUAUCAGAAGGAGCGUGGAAUAUUCAUCUGUAUCUAAUACGAGUGAUGUUCGUAAUUCACAGGUAGGUCGCUGAUUAAUAA [whbob_Ex_Arginine_B_2th157]	274	275	253	266	231
AAUAGCCGUACUAGUGAUGUUAGUGUGGAUACCAGUUCAUGGACGAACCCUUGGCAGCCAUCAAAUAUAUAUGAGGGAUCAUCAC [theeternabot_exclusion_KL_Theo_A_47]	295	268	309	410	320
AAUAUACAGGGAAGGAGCGUCGUCCAGUGAUGUUGGAGUUAAAUACCAGUGAUGUUGGUUAGGCAGGUAGGUCGCCCUAAAGUAU [KL-XARG-B15]	93.6	68.3	86.7	85.1	73.9
AAUAUACAUUAAUUAAUUAAAGGUUCAGAAGGAGCGUGAAUUAACACAGGUAGGUCGCUGAGCGAGUGAUGUUCGCUAUAUACUA [JR_ExcArginiA_Sub004]	61.4	73.1	69.5	79.9	58.1
AAUAUAGUGAUGUUAUAUAAGAAGGAGUUACGAGGACCGGUACGGCCGCCACUCGAAACGAGUGAUGAUUUGGGAGAUUGGGUUG [SSTryptA.N]	484	347	489	433	370
AAUAUAUAGUGAAGGAGCGCGAUAAGCAGUGAUGUUGCUUAGCUAUUAUUCAUUAUUUUUACGCAGGUAGGUCGCACUAUAUAUA [JR_ExcArginiB_Sub014]	138	128	144	133	139
AAUAUAUAGUGAAGGAGCGCGUAUAGCAGUGAUGUUGCUUACUUAUUAUUAUAUUUUUUGACGCAGGUAGGUCGCACUAUAUAUA [JR_ExcArginiB_Sub021]	242	181	268	227	215
AAUAUAUUGUGAAGGAGCGCGAAAAGCAGUGAUGUUGCUUACUUACAAUUUAUUUUUUACACGCAGGUAGGUCGCACAAUAUAUA [JR_SSArginiB_Sub015]	234	223	269	280	220
AAUCCUUACGGAGUGAUGUUCCGUAGCGAUACCAGCCAUUGCGAUGGCCCUUGGCAGCGCUAUAAGCAUUGCUAUUAAGGGCCAA [Theo A Ex t7a]	134	107	124	121	126
AAUCUCCUAGUGAUGUUAGGUUUAAGGGAAGGAGCGAGGUAAUACUCAGGUAGGUCGCCCACAUGCAUUAAUAAAUCAAUUUAAU	102	73.8	91	98.8	84.2
AAUGCAUAGUGAAGGAGCGCGAUAAGCAGUGAUGUUGCUUAGCUAUUAUUCAUUAUUUUAACGCAGGUAGGUCGCACUUUGCAUA [JR_ExcArginiB_Sub015]	131	127	128	151	128
AAUGCAUAGUGAAGGAGCGCGAUAAGCAGUGAUGUUGCUUAGUUAUAAGUGUUUAUUUAUUCGCAGGUAGGUCGCACUUUGCAUA [JR_ExcArginiB_Sub019]	147	111	124	117	132
AAUGCAUAGUGAAGGAGCGCGAUAAGCAGUGAUGUUGCUUAGUUAUUAGUGUUUAUUUAUACGCAGGUAGGUCGCACUUUGCAUA [JR_ExcArginiB_Sub018]	115	103	109	105	107
AAUGCAUUGUGAAGGAGCGCGAUAGGCAGUGAUGUUGCUUACAUUUUAUUAUGUUUUAAAACGCAGGUAGGUCGCACUUUGCAUA [JR_Nu_SSArginiB_Sub030]	187	163	183	193	162
AAUGUACAGGGAAGGAGCGUCGUCCAGUGAUGUUGGAGUUAAAUACCAGUGAUGUUGGUUAGGCAGGUAGGUCGCCCUAAAGUAU [#08 K4 Arginine B Exclusion]	96.1	71.5	86.9	80	75.2
AAUGUGCAGGGAAGGAGCGUAGUCCAGUGCUGUUGGAGUUAGAUACCAGUGAUGUUGGUUAUACAGGUAGGUCGCCCUAGAGCGC [whbob_Ex_Arginine_B_2th162]	114	119	124	141	96.3
AAUGUUAGCAAAGGAUAUCUGAUGAGUGAUGUUUACGGACCGUUUGCGUUUCAUUACACGCAGCUCAGAGAAGGUUGGUGUGCAG [theeternabot_exclusion_KL_FMN_B_49]	1230	866	1180	890	961
AAUUAAUGUAUAGAUUAUAUACAUUAAUCAGAGGAUAUGCAUUAUUGCAGAAGGCUGAAUGCAGUGAUGUUGCAAUAAUAAUUUA [JR_SSFMNA_Sub003]	60.6	229	186	313	151
